Measured values from the supplement of paper PMC10567573.

B1: VDR (parent)
chain: LIKFQVGLKKLNLHEEEHVLLMAI

Variants of: B1
Experiment: protein stability index of a GFP-peptide fusion (GPS, HEK-293T) (PSI 1-6); higher = more stable
Details: c terminus: a fixed tail appended
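Further: lentivirally expressed fusions sorted by FACS into six bins by GFP to DsRed ratio, PSI derived from sequencing read proportions per bin multiplied by bin number.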

Row | Variant | protein stability index
1 | LIKFQVGLKKLNLHEEEHVELMAI [L20E] | 2.24
2 | LIKFQVGLKKLNLHEEEHVDLMAI [L20D] | 1.19
3 | LIKFQVGLKKLNLHEEEHVCLMAI [L20C] | 3.71
4 | LIKFQVGLKKLNLHEEEHVQLMAI [L20Q] | 1.81
5 | LIKFQVGLKKLNLHEEEHVPLMAI [L20P] | 2.31
6 | LIKFQVGLKKLNLHEEEHVVLMAI [L20V] | 1.01
7 | LIKFQVGLKKLNLHEEEHVMLMAI [L20M] | 2.15
8 | LIKFQVGLKKLNLHEEEHVTLMAI [L20T] | 2.4
9 | LIKFQVGLKKLNLHEEEHVHLMAI [L20H] | 1.86
10 | LIKFQVGLKKLNLHEEEHVKLMAI [L20K] | 1.91
11 | LIKFQVGLKKLNLHEEEHVFLMAI [L20F] | 2.29
12 | LIKFQVGLKKLNLHEEEHVYLMAI [L20Y] | 2.9
13 | LIKFQVGLKKLNLHEEEHVALMAI [L20A] | 2.05
14 | LIKFQVGLKKLNLHEEEHVILMAI [L20I] | 2.83
15 | LIKFQVGLKKLNLHEEEHVGLMAI [L20G] | 4.03
16 | LIKFQVGLKKLNLHLEEHVLLMAI [E15L] | 3.71
17 | LIKFQVGLKKLNLHTEEHVLLMAI [E15T] | 3.96
18 | LIKFQVGLKKLNLHFEEHVLLMAI [E15F] | 2.77
19 | LIKFQVGLKKLNLHWEEHVLLMAI [E15W] | 3.87
20 | LIKFQVGLKKLNLHAEEHVLLMAI [E15A] | 2.52
21 | LIKFQVGLKKLNLHGEEHVLLMAI [E15G] | 2.92
22 | LIKFQVGLKKLNLHKEEHVLLMAI [E15K] | 2.5
23 | LIKFQVGLKKLNLHCEEHVLLMAI [E15C] | 1.99
24 | LIKFQVGLKKLNLHPEEHVLLMAI [E15P] | 2.38

Row | Variant | protein stability index
25 | LIKFQVGLKKLNLHVEEHVLLMAI [E15V] | 2.61
26 | LIKFQVGLKKLNLHSEEHVLLMAI [E15S] | 2.96
27 | LIKFQVGLKKLNLHQEEHVLLMAI [E15Q] | 2.77
28 | LIKFQVGLKKLNLHYEEHVLLMAI [E15Y] | 1.94
29 | LIKFQVGLKKLNLHEKEHVLLMAI [E16K] | 1.77
30 | LIKFQVGLKKLNLHENEHVLLMAI [E16N] | 2.09
31 | LIKFQVGLKKLNLHEPEHVLLMAI [E16P] | 3.81
32 | LIKFQVGLKKLNLHETEHVLLMAI [E16T] | 2.81
33 | LIKFQVGLKKLNLHEQEHVLLMAI [E16Q] | 1.57
34 | LIKFQVGLKKLNLHEREHVLLMAI [E16R] | 2.24
35 | LIKFQVGLKKLNLHEIEHVLLMAI [E16I] | 1.97
36 | LIKFQVGLKKLNLHELEHVLLMAI [E16L] | 3.15
37 | LIKFQVGLKKLNLHEYEHVLLMAI [E16Y] | 1.43
38 | LIKFQVGLKKLNLHECEHVLLMAI [E16C] | 3.87
39 | LIKFQVGLKKLNLHEEEHVLLIAI [M22I] | 2.91
40 | LIKFQVGLKKLNLHEEEHVLLPAI [M22P] | 2.09
41 | LIKFQVGLKKLNLHEEEHVLLQAI [M22Q] | 2.36
42 | LIKFQVGLKKLNLHEEEHVLLYAI [M22Y] | 2.25
43 | LIKFQVGLKKLNLHEEEHVLLDAI [M22D] | 1.17
44 | LIKFQVGLKKLNLHEEEHVLLKAI [M22K] | 1.7
45 | LIKFQVGLKKLNLHEEEHVLLCAI [M22C] | 2.61
46 | LIKFQVGLKKLNLHEEEHVLLSAI [M22S] | 1.68
47 | LIKFQVGLKKLNLHEEEHVLLAAI [M22A] | 3.3
48 | LIKFQVGLKKLNLHEEEHVLLRAI [M22R] | 1.33

Row | Variant | protein stability index
49 | LIKFQVGLKKLNLHEEEHVLLGAI [M22G] | 2.01
50 | LIKFQVGLKKLNLHEEEHVLLLAI [M22L] | 2.66
51 | LIKFQVGLKKLNLHEEEHVLLTAI [M22T] | 1.84
52 | LIKFQVGLKKLNLHEEEHVLLFAI [M22F] | 2.88
53 | LIKFQVGLKKLNLHEEEHVLLWAI [M22W] | 2.81
54 | LIKFQVGLKKLNLHEEEHVLLHAI [M22H] | 2.06
55 | LIKFQVGLKKLNLHEEEHVLLEAI [M22E] | 1.15
56 | LIKFQVGLKKLNLHEEEHVLLNAI [M22N] | 2.99
57 | LIKFQVGLKKLNLHEEEIVLLMAI [H18I] | 2.93
58 | LIKFQVGLKKLNLHEEEKVLLMAI [H18K] | 3.13
59 | LIKFQVGLKKLNLHEEETVLLMAI [H18T] | 1.12
60 | LIKFQVGLKKLNLHEEENVLLMAI [H18N] | 3.21
61 | LIKFQVGLKKLNLHEEEAVLLMAI [H18A] | 4.04
62 | LIKFQVGLKKLNLHEEEEVLLMAI [H18E] | 2.33
63 | LIKFQVGLKKLNLHEEEMVLLMAI [H18M] | 3.56
64 | LIKFQVGLKKLNWHEEEHVLLMAI [L13W] | 2.81
65 | LIKFQVGLKKLNLHEERHVLLMAI [E17R] | 3.74
66 | LIKFQVGLKKLNLHEEYHVLLMAI [E17Y] | 3.14
67 | LIKFQVGLKKLNLHEEFHVLLMAI [E17F] | 1.95
68 | LIKFQVGLKKLNLHEEMHVLLMAI [E17M] | 2.37
69 | LIKFQVGLKKLNLHEEPHVLLMAI [E17P] | 2.91
70 | LIKFQVGLKKLNLHEEDHVLLMAI [E17D] | 2.28
71 | LIKFQVGLKKLNLHEEHHVLLMAI [E17H] | 2.34
72 | LIKFQVGLKKLNLHEENHVLLMAI [E17N] | 2.3

Row | Variant | protein stability index
73 | LIKFQVGLKKLNLHEELHVLLMAI [E17L] | 1.8
74 | LIKFQVGLKKLNLHEEQHVLLMAI [E17Q] | 2.7
75 | LIKFQVGLKKLNLHEEEHVLLMAF [I24F] | 3.74
76 | LIKFQVGLKKLNLHEEEHVLLMAR [I24R] | 2.35
77 | LIKFQVGLKKLNLHEEEHVLLMAW [I24W] | 2.33
78 | LIKFQVGLKKLNLHEEEHVLLMAT [I24T] | 1.85
79 | LIKFQVGLKKLNLHEEEHVLLMAN [I24N] | 2.74
80 | LIKFQVGLKKLNLHEEEHVLLMAS [I24S] | 1.97
81 | LIKFQVGLKKLNLHEEEHVLLMAQ [I24Q] | 2.48
82 | LIKFQVGLKKLNLHEEEHVLLMAD [I24D] | 1.87
83 | LIKFQVGLKKLNLHEEEHVLLMAC [I24C] | 3.08
84 | LIKFQVGLKKLNLHEEEHVLLMAP [I24P] | 1.21
85 | LIKFQVGLKKLNLHEEEHVLLMAK [I24K] | 2.69
86 | LIKFQVGLKKLNLHEEEHVLLMAE [I24E] | 2.55
87 | LIKFQVGLKKLNLHEEEHVLLMAA [I24A] | 2.8
88 | LIKFQVGLKKLNLHEEEHVLLMAY [I24Y] | 3.26
89 | LIKFQVGLKKLNLGEEEHVLLMAI [H14G] | 4.41
90 | LIKFQVGLKKLNLIEEEHVLLMAI [H14I] | 2.28
91 | LIKFQVGLKKLNLPEEEHVLLMAI [H14P] | 2.53
92 | LIKFQVGLKKLNLDEEEHVLLMAI [H14D] | 2.21
93 | LIKFQVGLKKLNLNEEEHVLLMAI [H14N] | 3.26
94 | LIKFQVGLKKLNLEEEEHVLLMAI [H14E] | 4.65
95 | LIKFQVGLKKLNLKEEEHVLLMAI [H14K] | 2.66
